These results are taken from the Human Domainome abundance scans (Beltran et al. 2025).

± gives the uncertainty stated by the source.

B1: CD2-associated protein, residues 1 to 59; numbered along this chain, Q9Y5K6 (parent)
chain: MVDYIVEYDYDAVHDDELTIRVGEIIRNVKKLQEEGWLEGELNGRRGMFPDNFVKEIKR

In the data set the parent is B1. Description: abundance fitness (aPCA) (normalised: wild type 0, dead -1); higher = more abundant; growth selection in yeast, the domain comes from the species named. The following applies: Homo sapiens.
Consider MVDYIVECDYDAVHDDELTIRVGEIIRNVKKLQEEGWLEGELNGRRGMFPDNFVKEIKR [Y8C], for which the abundance fitness came out at 0.096 ± 0.11.

Turning to MVDYIVEYDYDAVHDDELTIRVGEIIRNVKKLQEEGWLEGELNGCRGMFPDNFVKEIKR [R45C], the abundance fitness was 0.033 ± 0.26.

For the variant MVDYIVEYDYDAVHDDELTIRVGEIIRNVKKLQEEGWLEGELNGGRGMFPDNFVKEIKR [R45G], the abundance fitness is -0.7 ± 0.31.

On to MVRYIVEYDYDAVHDDELTIRVGEIIRNVKKLQEEGWLEGELNGRRGMFPDNFVKEIKR [D3R], for which the abundance fitness was -0.255 ± 0.046.

Regarding MVLYIVEYDYDAVHDDELTIRVGEIIRNVKKLQEEGWLEGELNGRRGMFPDNFVKEIKR [D3L], the abundance fitness is -0.267 ± 0.051.

As to MVQYIVEYDYDAVHDDELTIRVGEIIRNVKKLQEEGWLEGELNGRRGMFPDNFVKEIKR [D3Q], the abundance fitness was -0.188 ± 0.068.

Consider MVEYIVEYDYDAVHDDELTIRVGEIIRNVKKLQEEGWLEGELNGRRGMFPDNFVKEIKR [D3E], for which the abundance fitness came to 0.014 ± 0.065.

On to MVDYIVEYRYDAVHDDELTIRVGEIIRNVKKLQEEGWLEGELNGRRGMFPDNFVKEIKR [D9R], for which the abundance fitness was -0.417 ± 0.11.

Consider MVDYIVEYDYDAVHDDELTIRVGEIIRNVKKLQEKGWLEGELNGRRGMFPDNFVKEIKR [E35K], for which the abundance fitness worked out at 0.027 ± 0.11.

As for MVDYIVEYDYDAVHDDELTIRVGEIIRNVKKLQEIGWLEGELNGRRGMFPDNFVKEIKR [E35I], the abundance fitness was -0.062 ± 0.095.

Consider MVDYIVEYDYDAVHDDELTIRVGEIIRNVKKLQERGWLEGELNGRRGMFPDNFVKEIKR [E35R], for which the abundance fitness is -0.016 ± 0.062.

For the variant MVDYIVEYDYDAVHDDELTIRVGEIIRNVKKLQEPGWLEGELNGRRGMFPDNFVKEIKR [E35P], the abundance fitness was 0.051 ± 0.099.

For MVDYIVEYDYDAVHDDELTIRVGEIIRNTKKLQEEGWLEGELNGRRGMFPDNFVKEIKR [V29T], the abundance fitness was -0.378 ± 0.2.

Regarding MVDYIVEYDYDAVHDDELTIRVGEIIRNLKKLQEEGWLEGELNGRRGMFPDNFVKEIKR [V29L], the abundance fitness is -0.62 ± 0.22.

On to MVDYIVEYDYDAVHDDELTIRVGEIIRNSKKLQEEGWLEGELNGRRGMFPDNFVKEIKR [V29S], for which the abundance fitness is -0.448 ± 0.2.

As for MVDYIVEYDYDATHDDELTIRVGEIIRNVKKLQEEGWLEGELNGRRGMFPDNFVKEIKR [V13T], the abundance fitness is -0.275 ± 0.11.

Take MVDYIVEYDYDAQHDDELTIRVGEIIRNVKKLQEEGWLEGELNGRRGMFPDNFVKEIKR [V13Q]: the abundance fitness was -0.268 ± 0.23.

Consider MVDYIVEYDYDAVPDDELTIRVGEIIRNVKKLQEEGWLEGELNGRRGMFPDNFVKEIKR [H14P], for which the abundance fitness is -0.946 ± 0.26.

Turning to MVDYIVEYDYDAVHDDELTIRVGEIIRNVKKLQEEGWLEGELNGRRGMFPDSFVKEIKR [N52S], the abundance fitness was 0.107 ± 0.08.

Regarding MVDYIVEYDYDAVHDDELTIRVGEIIRNVKKLQEEGWLEGELNGRRGMFPDLFVKEIKR [N52L], the abundance fitness was -0.03 ± 0.078.

In the case of MVDYIVEYDYDAVHDDELTIRVGEIIRNVKKLQEEGWLEGELNGRRGMFPDPFVKEIKR [N52P], the abundance fitness is -0.065 ± 0.08.

On to MVDYIVEYDYDAVHDDELTIRVGEIIRNVKKLQEEGWLEGELNGRRGFFPDNFVKEIKR [M48F], for which the abundance fitness was -0.175 ± 0.13.

On to MVDYIVEYDYDAVHDKELTIRVGEIIRNVKKLQEEGWLEGELNGRRGMFPDNFVKEIKR [D16K], for which the abundance fitness was -0.095 ± 0.13.

Consider MVDYIVEYDYDAVHDYELTIRVGEIIRNVKKLQEEGWLEGELNGRRGMFPDNFVKEIKR [D16Y], for which the abundance fitness was 0.03 ± 0.14.

For the variant MVDYIVEYDYDAVHDDELTIRVTEIIRNVKKLQEEGWLEGELNGRRGMFPDNFVKEIKR [G23T], the abundance fitness was -0.755 ± 0.24.

Turning to MVDYIVEYDYDAVHDDELLIRVGEIIRNVKKLQEEGWLEGELNGRRGMFPDNFVKEIKR [T19L], the abundance fitness was -0.682 ± 0.11.

In the case of MVDYIVEYDYDAVHDDELMIRVGEIIRNVKKLQEEGWLEGELNGRRGMFPDNFVKEIKR [T19M], the abundance fitness is -0.713 ± 0.18.

Regarding MVDYIVEYDYDAVHDDELTIRVGEIIRNVHKLQEEGWLEGELNGRRGMFPDNFVKEIKR [K30H], the abundance fitness was 0.111 ± 0.19.

On to MVDYIVEYDYDAVHDDELTIRVGEIIRNVDKLQEEGWLEGELNGRRGMFPDNFVKEIKR [K30D], for which the abundance fitness is -0.22 ± 0.18.

With MVDYIVEYDYDAVHDDELTIRVGEIIRNVAKLQEEGWLEGELNGRRGMFPDNFVKEIKR [K30A], the abundance fitness is -0.181 ± 0.13.

With MVDYIVEYDYDAVHDDELTIRVGEIIRNVSKLQEEGWLEGELNGRRGMFPDNFVKEIKR [K30S], the abundance fitness was -0.135 ± 0.095.

On to MVDYIVEYDNDAVHDDELTIRVGEIIRNVKKLQEEGWLEGELNGRRGMFPDNFVKEIKR [Y10N], for which the abundance fitness was -0.599 ± 0.33.

As for MVDYIVEYDYDAVHDDELTIRVGEYIRNVKKLQEEGWLEGELNGRRGMFPDNFVKEIKR [I25Y], the abundance fitness was -0.294 ± 0.18.

Take MVDYIVEYDYDAVHDDELTIRVGEAIRNVKKLQEEGWLEGELNGRRGMFPDNFVKEIKR [I25A]: the abundance fitness was -0.667 ± 0.22.

For MVDYIVEYDYDAVHDDELTIRVGEKIRNVKKLQEEGWLEGELNGRRGMFPDNFVKEIKR [I25K], the abundance fitness was -0.043 ± 0.2.

Regarding MVDYIVEYDYDAVHDDELTIRVGEEIRNVKKLQEEGWLEGELNGRRGMFPDNFVKEIKR [I25E], the abundance fitness was -0.516 ± 0.47.

In the case of MVDYIVEYDYDAVHDDELTIRVGEIIRNVKKLQEEGWLEGELNGRRGMFPDNTVKEIKR [F53T], the abundance fitness was 0.205 ± 0.098.

With MVDYIVEYDYDAVHDDELTIRVGEIIRNVKKLQEEGWLEGELNGRRGMFPDNSVKEIKR [F53S], the abundance fitness worked out at 0.035 ± 0.071.

For the variant MVDYIVEYDYDAVHDDELTIRVGNIIRNVKKLQEEGWLEGELNGRRGMFPDNFVKEIKR [E24N], the abundance fitness was -0.412 ± 0.44.

On to MVDYIVEYDYDAVHDDELTIRVGEIIRNVKKLQEEGWLERELNGRRGMFPDNFVKEIKR [G40R], for which the abundance fitness is -0.858 ± 0.23.

Turning to MVDYIVEYDYDAVHDDELTIRVGEIIRNVKKLQEEGWLEVELNGRRGMFPDNFVKEIKR [G40V], the abundance fitness is -0.904 ± 0.43.

In the case of MVDYIVEYDYDAVHDDELTIRVGEIIRNVKKLQEEGWLEGELYGRRGMFPDNFVKEIKR [N43Y], the abundance fitness was -0.072 ± 0.11.

Consider MVDYIVEYDYDAVHDDELTIRVGEIIRNVKKLQEEGWLEGELSGRRGMFPDNFVKEIKR [N43S], for which the abundance fitness was -0.221 ± 0.051.

Regarding MVDYIVEYDYDAVHDDELTIRVGEIIRNVKKLQEEGWLEGELWGRRGMFPDNFVKEIKR [N43W], the abundance fitness was -0.562 ± 0.26.

MVDYIVEYDYDAVHDDELTIRVGEIIRNVKKLQEEYWLEGELNGRRGMFPDNFVKEIKR [G36Y]: the abundance fitness is -0.614 ± 0.15.
